# Assay results published in PMC13044922, “Molecular structure and nickel-binding capacity of Proteus mirabilis UreE” (Acta Crystallographica Section D: Structural Biology, 2026).
# B1: PmUreE-ΔC17 (domain or fragment)
# chain: MKKFTQIIDQQKALELTSTEKPKLTLCLTMDERTKSRLKVALSDGQEAGLFLPRGTVLKEGDILLSEEGDVVTIEAAKEQVSTVYSDDPLLLARVCYHLGNRHVPLQIEAGWCRYFHDHVLDDMARGLGATVVVGLEKYQPEPG
# notes: UreE of Proteus mirabilis ATCC 12453 with a stop codon inserted after Gly144 (lacks the last 17 residues, the histidine-rich C-terminus); Made from the full-length construct of m1 by a stop codon after Gly144; also called PmUreE-ΔC17 truncation mutant; C-terminally truncated mutant of PmUreE; source: E. coli BL21 (DE3), purified (Ni-NTA, SEC)
# B2: Proteus mirabilis UreE (natural protein)
# chain: MKKFTQIIDQQKALELTSTEKPKLTLCLTMDERTKSRLKVALSDGQEAGLFLPRGTVLKEGDILLSEEGDVVTIEAAKEQVSTVYSDDPLLLARVCYHLGNRHVPLQIEAGWCRYFHDHVLDDMARGLGATVVVGLEKYQPEPGAYGGSSGGHHHHHDHHH
# notes: Cloned from strain ATCC 12453; In the crystal the models end at residue 147 (chain A) and 144 (chain B); the C-terminal tails are not resolved; also called PmUreE; full-length PmUreE
# Molecular target: the molecule itself
# Test: SEC; HiLoad 16/600 Superdex 75, 20 mM HEPES pH 7.5, 100 mM NaCl with or without 1 mM EDTA, 277 K; elution volume compared with molecular weight
row,Protein,stoichiometry N
1,B1,2
2,B2,~2
